Molecular target: the molecule itself
Experiment: SEC; HiLoad Superdex 200 HR column (1.6 x 60 cm), 20 mM Na-HEPES, 200 mM NaCl, pH 7.0, 0.7 mL/min, 4 °C; preparative isolation of the oligomeric form after affinity purification

Protein | stoichiometry N
MBP-FXa-hPAH-RD^1–120 (N-terminal regulatory domain of human phenylalanine hydroxylase fused to maltose binding protein) (domain or fragment, UniProt P00439 1-120, looked up, human phenylalanine hydroxylase, N-terminal regulatory domain, amino acids 1-120; The fusion is about 53 kDa; also called MBP-FXa-hPAH-RD^1–120 fusion protein; dimeric MBP-FXa-hPAH-RD^1–120; source: E. coli TB1, purified (amylose resin, then SEC to isolate dimers); not shown: MBP, N-terminal, kept) MSTAVLENPGLGRKLSDFGQETSYIEDNCNQNGAISLIFSLKEEVGALAKVLRLFEENDVNLTHIESRPSRLKKDEYEFFTHLDKRSLPALTNIIKILRHDIGATVHELSRDKKKDTVPW | 2
Recombinant full-length wild-type human phenylalanine hydroxylase (enzyme, UniProt P00439 1-452, looked up, human phenylalanine hydroxylase (hPAH; EC 1.14.16.1), full-length wild type, expressed in fusion with a hexa-histidyl peptide; It gives a subunit mass of 55 kDa and an expected tetramer mass of 223 kDa; Non-heme iron sits in the catalytic site; also called hPAH; PAH; source: E. coli Top10, purified (IMAC on Ni-NTA agarose, then SEC to isolate tetramers)) MSTAVLENPGLGRKLSDFGQETSYIEDNCNQNGAISLIFSLKEEVGALAKVLRLFEENDVNLTHIESRPSRLKKDEYEFFTHLDKRSLPALTNIIKILRHDIGATVHELSRDKKKDTVPWFPRTIQELDRFANQILSYGAELDADHPGFKDPVYRARRKQFADIAYNYRHGQPIPRVEYMEEEKKTWGTVFKTLKSLYKTHACYEYNHIFPLLEKYCGFHEDNIPQLEDVSQFLQTCTGFRLRPVAGLLSSRDFLGGLAFRVFHCTQYIRHGSKPMYTPEPDICHELLGHVPLFSDRSFAQFSQEIGLASLGAPDEYIEKLATIYWFTVEFGLCKQGDSIKAYGAGLLSSFGELQYCLSEKPKLLPLELEKTAIQNYTVTEFQPLYYVAESFNDAKEKVRNFAATIPRPFSVRYDPYTQRIEVLDNTQQLKILADSINSEIGILCSALQKIK | 4

— article PMC8003416, “Modulation of Human Phenylalanine Hydroxylase by 3-Hydroxyquinolin-2(1H)-One Derivatives” (Biomolecules, 2021)
